From PMC2575037 (Protein expression and purification, 2008)

How the values were obtained:
bDHFR [1] = biological target: T1, bDHFR (Bos taurus, UniProt P00376); assay: spectrophotometric DHFR assay at […] nm; type: biochemical; details: read-out: % inhibition after preincubation with 0.68 mM
T1 sequence (P00376 1-187): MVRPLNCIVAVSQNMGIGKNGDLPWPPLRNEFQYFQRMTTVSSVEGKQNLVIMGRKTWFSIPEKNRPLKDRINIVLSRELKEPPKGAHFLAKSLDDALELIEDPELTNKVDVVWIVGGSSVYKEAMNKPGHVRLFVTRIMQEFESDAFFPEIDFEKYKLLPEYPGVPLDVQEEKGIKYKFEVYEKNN

mDHFR = biological target: T2, mDHFR (Mus musculus, UniProt P00375); assay: spectrophotometric DHFR assay at […] nm; type: biochemical; details: read-out: % inhibition at 122 μM
T2 sequence (P00375 1-187): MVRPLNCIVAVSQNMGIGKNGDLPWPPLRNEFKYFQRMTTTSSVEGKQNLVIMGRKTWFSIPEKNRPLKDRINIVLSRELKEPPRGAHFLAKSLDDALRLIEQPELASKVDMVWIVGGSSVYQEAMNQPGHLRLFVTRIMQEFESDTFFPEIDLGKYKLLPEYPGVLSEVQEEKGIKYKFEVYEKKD

bDHFR [2] = biological target: T1, bDHFR; assay: spectrophotometric DHFR assay at […] nm; type: biochemical
purified protein [3] = substrate: Nc1nc2c(c(=O)[nH]1)N=C(CNc1ccc(C(=O)N[C@@H](CCC(=O)O)C(=O)O)cc1)CN2; assay: purified protein; details: 37 °C, KCl, co-substrate NADPH
purified protein [4] = substrate: NC(=O)C1=CN([C@@H]2O[C@H](COP(=O)(O)OP(=O)(O)OC[C@H]3O[C@@H](n4cnc5c(N)ncnc54)[C@H](OP(=O)(O)O)[C@@H]3O)[C@@H](O)[C@H]2O)C=CC1; assay: purified protein; type: biochemical, Mus musculus; details: 37 °C, KCl, co-substrate DHFA, varied: cofactor
purified protein [5] = substrate: NC(=O)C1=CN([C@@H]2O[C@H](COP(=O)(O)OP(=O)(O)OC[C@H]3O[C@@H](n4cnc5c(N)ncnc54)[C@H](OP(=O)(O)O)[C@@H]3O)[C@@H](O)[C@H]2O)C=CC1; assay: purified protein; type: biochemical, Bos taurus; details: 37 °C, KCl, co-substrate DHFA, varied: cofactor

O=C(O[C@@H]1Cc2c(O)cc(O)cc2O[C@@H]1c1cc(O)c(O)c(O)c1)c1cc(O)c(O)c(O)c1 [EGCG]
inhibition at 680 µM (bDHFR [1]): 26%
inhibition at 122 µM (mDHFR): 18%

CNCCC=C1c2ccccc2CCc2ccccc21 [nortriptyline]
Ki (bDHFR [2]): 840 ± 250 nM

B1: mDHFR (Mus musculus) (protein)
chain: T2 sequence (P00375 1-187)
Km (purified protein [3]): 0.32 ± 0.05 µM
kcat (purified protein [3]): 29 ± 5 s⁻¹
kcat/Km (purified protein [3]): 9.2e+07 M⁻¹ s⁻¹
Km (purified protein [4]): 2.4 ± 0.5 µM
kcat (purified protein [4]): 29 ± 5 s⁻¹

B2: hDHFR (Homo sapiens) (protein)
chain: MVGSLNCIVAVSQNMGIGKNGDLPWPPLRNEFRYFQRMTTTSSVEGKQNLVIMGKKTWFSIPEKNRPLKGRINLVLSRELKEPPQGAHFLSRSLDDALKLTEQPELANKVDMVWIVGGSSVYKEAMNHPGHLKLFVTRIMQDFESDTFFPEIDLEKYKLLPEYPGVLSDVQEEKGIKYKFEVYEKND
Km (purified protein [3]): 2.7 ± 0.5 µM
kcat (purified protein [3]): 40 ± 2 s⁻¹
kcat/Km (purified protein [3]): 1.5e+07 M⁻¹ s⁻¹

B3: bDHFR (Bos taurus) (protein)
chain: T1 sequence (P00376 1-187)
Km (purified protein [3]): 0.35 ± 0.13 µM
kcat (purified protein [3]): 24 ± 7 s⁻¹
kcat/Km (purified protein [3]): 6.8e+07 M⁻¹ s⁻¹
Km (purified protein [5]): 3.2 ± 0.6 µM
kcat (purified protein [5]): 24 ± 7 s⁻¹
